# Reference: FireProtDB (doi:10.1093/protein/12.7.581)
# Where “and” joins values, the source holds several entries; their conditions need not be identical. Identical values can stand only once.
# Settings: Bos taurus; pH 7.4; Thermal; CD; Tris-HCl 20 mM; CaCl2 1 mM; reversible: yes(>95%); whole UniProt chain shown
protein,measurement,value
"Alpha-lactalbumin wild type, P00711 (protein) MMSFVSLLLVGILFHATQAEQLTKCEVFRELKDLKGYGGVSLPEWVCTTFHTSGYDTQAIVQNNDSTEYGLFQINNKIWCKDDQNPHSSNICNISCDKFLDDDLTDDIMCVKKILDKVGINYWLAHKALCSEKLDQWLCEKL",unfolding enthalpy (van 't Hoff),64.5 kcal/mol and 73.8 kcal/mol and 73.4 kcal/mol
